Results on 1 molecule are retold here after US20250262210A1 (TRUSTEES OF COLUMBIA UNIVERSITY IN THE CITY OF NEW YORK, published 2025).

Experiment [1] addresses T1, FBX038 (human, UniProt Q6PIJ6 1-1188, limits assumed).
T1 construct: Printed with a zero; probably FBXO38
T1 sequence (looked up): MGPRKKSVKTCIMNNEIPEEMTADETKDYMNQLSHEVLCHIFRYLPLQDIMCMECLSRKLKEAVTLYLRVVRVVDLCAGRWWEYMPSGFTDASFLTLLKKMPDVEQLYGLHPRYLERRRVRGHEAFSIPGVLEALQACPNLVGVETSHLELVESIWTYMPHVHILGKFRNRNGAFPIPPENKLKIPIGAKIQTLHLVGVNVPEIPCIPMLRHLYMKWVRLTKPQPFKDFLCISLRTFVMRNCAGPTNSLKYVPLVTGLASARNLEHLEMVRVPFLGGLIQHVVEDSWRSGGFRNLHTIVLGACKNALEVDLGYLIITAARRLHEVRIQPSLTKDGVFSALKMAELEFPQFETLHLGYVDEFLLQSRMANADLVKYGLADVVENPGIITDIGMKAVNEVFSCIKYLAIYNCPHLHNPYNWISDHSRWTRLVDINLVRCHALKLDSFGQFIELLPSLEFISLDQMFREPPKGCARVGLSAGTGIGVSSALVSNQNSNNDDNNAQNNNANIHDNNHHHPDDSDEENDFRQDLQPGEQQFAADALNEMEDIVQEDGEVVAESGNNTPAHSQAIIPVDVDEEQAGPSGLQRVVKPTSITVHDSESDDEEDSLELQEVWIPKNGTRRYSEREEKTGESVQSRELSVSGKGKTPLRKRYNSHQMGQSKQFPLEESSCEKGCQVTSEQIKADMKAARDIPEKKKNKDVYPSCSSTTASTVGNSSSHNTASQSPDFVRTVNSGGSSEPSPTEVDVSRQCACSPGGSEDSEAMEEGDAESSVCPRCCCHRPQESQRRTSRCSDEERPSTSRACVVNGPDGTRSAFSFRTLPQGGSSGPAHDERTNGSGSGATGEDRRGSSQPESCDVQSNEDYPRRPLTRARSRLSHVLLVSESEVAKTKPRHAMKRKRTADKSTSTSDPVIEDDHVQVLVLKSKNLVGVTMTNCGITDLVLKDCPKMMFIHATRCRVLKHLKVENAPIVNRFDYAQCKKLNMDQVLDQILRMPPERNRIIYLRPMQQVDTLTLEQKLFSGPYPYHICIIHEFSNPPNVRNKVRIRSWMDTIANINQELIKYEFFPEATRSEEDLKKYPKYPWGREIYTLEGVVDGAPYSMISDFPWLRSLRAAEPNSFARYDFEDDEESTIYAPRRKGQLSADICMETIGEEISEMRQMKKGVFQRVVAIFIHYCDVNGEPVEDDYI
The experiment can be described thus: IP/MS, LZTR1 wild type-FLAG, U87. The essentials:
(§1)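 Gel slices were reduced with 5 mM DTT, alkylated with 11 mM IAA and digested overnight at 37° C. with trypsin. Peptides were analysed on an Orbitrap Fusion Tribrid by LC-MS/MS.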

Experiment [2] addresses T2, LAMB3 (human, UniProt Q13751 18-1172).
T2 sequence (looked up): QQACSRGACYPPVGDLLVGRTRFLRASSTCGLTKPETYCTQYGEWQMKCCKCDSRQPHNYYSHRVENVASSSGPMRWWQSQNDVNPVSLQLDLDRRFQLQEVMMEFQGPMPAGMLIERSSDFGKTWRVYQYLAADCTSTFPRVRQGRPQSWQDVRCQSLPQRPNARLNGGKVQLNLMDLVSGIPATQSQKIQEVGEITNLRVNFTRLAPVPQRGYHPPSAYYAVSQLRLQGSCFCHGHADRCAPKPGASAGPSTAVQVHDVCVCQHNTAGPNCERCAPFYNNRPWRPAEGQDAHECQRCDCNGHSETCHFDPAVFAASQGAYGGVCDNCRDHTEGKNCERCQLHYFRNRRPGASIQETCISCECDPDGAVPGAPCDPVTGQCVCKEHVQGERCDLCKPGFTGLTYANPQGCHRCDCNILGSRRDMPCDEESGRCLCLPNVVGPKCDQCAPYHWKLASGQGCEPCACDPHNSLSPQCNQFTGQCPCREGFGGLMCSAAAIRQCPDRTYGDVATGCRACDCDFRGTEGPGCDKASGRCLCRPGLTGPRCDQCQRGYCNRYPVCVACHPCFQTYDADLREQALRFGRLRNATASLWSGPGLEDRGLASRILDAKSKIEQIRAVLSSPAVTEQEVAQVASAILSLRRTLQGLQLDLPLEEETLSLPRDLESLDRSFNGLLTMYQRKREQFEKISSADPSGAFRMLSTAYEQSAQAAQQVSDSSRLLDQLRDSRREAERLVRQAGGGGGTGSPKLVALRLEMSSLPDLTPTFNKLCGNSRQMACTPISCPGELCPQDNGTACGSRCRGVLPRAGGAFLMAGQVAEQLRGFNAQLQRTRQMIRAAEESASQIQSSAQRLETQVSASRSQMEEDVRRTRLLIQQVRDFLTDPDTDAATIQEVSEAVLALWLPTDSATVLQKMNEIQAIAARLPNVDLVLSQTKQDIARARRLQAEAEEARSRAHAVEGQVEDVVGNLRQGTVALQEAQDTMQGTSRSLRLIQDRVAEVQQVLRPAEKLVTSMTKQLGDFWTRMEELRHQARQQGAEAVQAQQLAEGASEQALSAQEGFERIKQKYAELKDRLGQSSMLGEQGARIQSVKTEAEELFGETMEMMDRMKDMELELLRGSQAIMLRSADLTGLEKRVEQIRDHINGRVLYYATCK
The experiment can be described thus: IP/MS, LZTR1 wild type-FLAG, U87. The essentials: as §1

B1: LZTR1-FLAG (other, human, UniProt Q8N653 1-840, looked up)
chain: MAGPGSTGGQIGAAALAGGARSKVAPSVDFDHSCSDSVEYLTLNFGPFETVHRWRRLPPCDEFVGARRSKHTVVAYKDAIYVFGGDNGKTMLNDLLRFDVKDCSWCRAFTTGTPPAPRYHHSAVVYGSSMFVFGGYTGDIYSNSNLKNKNDLFEYKFATGQWTEWKIEGRLPVARSAHGATVYSDKLWIFAGYDGNARLNDMWTIGLQDRELTCWEEVAQSGEIPPSCCNFPVAVCRDKMFVFSGQSGAKITNNLFQFEFKDKTWTRIPTEHLLRGSPPPPQRRYGHTMVAFDRHLYVFGGAADNTLPNELHCYDVDFQTWEVVQPSSDSEVGGAEVPERACASEEVPTLTYEERVGFKKSRDVFGLDFGTTSAKQPTQPASELPSGRLFHAAAVISDAMYIFGGTVDNNIRSGEMYRFQFSCYPKCTLHEDYGRLWESRQFCDVEFVLGEKEECVQGHVAIVTARSRWLRRKITQARERLAQKLEQEAAPVPREAPGVAAGGARPPLLHVAIREAEARPFEVLMQFLYTDKIKYPRKGHVEDVLLIMDVYKLALSFQLCRLEQLCRQYIEASVDLQNVLVVCESAARLQLSQLKEHCLNFVVKESHFNQVIMMKEFERLSSPLIVEIVRRKQQPPPRTPLDQPVDIGTSLIQDMKAYLEGAGAEFCDITLLLDGHPRPAHKAILAARSSYFEAMFRSFMPEDGQVNISIGEMVPSRQAFESMLRYIYYGEVNMPPEDSLYLFAAPYYYGFYNNRLQAYCKQNLEMNVTVQNVLQILEAADKTQALDMKRHCLHIIVHQFTKVSKLPTLRSLSQQLLLDIIDSLASHISDKQCAELGADI
notes: Expressed in HEK 293T, HeLa or U87 cells; used as cell lysate; also called LZTR1 wild type-FLAG; LZTR1 WT; not shown: FLAG tag at the C-terminus
As for B1, the binding result in experiment [1] and in experiment [2] was “binds” in each case.
